Data set [1] deals with mouse tibiae inoculated with mammary tumor cells TM40D or maspin-expressing TM40D-Mp. Put plainly: Osteolytic bone degradation in tumor-inoculated BALB/c mice (X-ray, H&E, TRAP staining of tibiae). It is filed as in vivo. The source says:
FIG. 1. […] Panel A-B: Representative X-ray radiographs of mouse tibiae inoculated with mammary tumor cells TM40D (Panel A) or maspin-expressing TM40D-Mp tumor cells (Panel B), at the end point of 4 weeks following tumor inoculation. Note that mice inoculated with TM40D tumors display severe osteolytic lesion comparing to that with TM40D-Mp cells. Panel E: Summary of osteolytic lesion data (radiography analysis) in 20 mice (10 mice/group) at 2-week and 4-week time points. Panel C: Histological analysis of bone section of tumor-inoculated tibiae by H&E staining. Arrow heads indicate osteoclastic cells. Panel D: TRAP (tartrate-resistant acid phosphatase) staining of osteoclastic cells in bone sections. Arrows indicate osteoclastic cells. Panel F: Summary of TRAP staining data of osteoclasts in mouse tibiae inoculated with TM40D or TM40D-Mp cells.

The test system of data set [2] is primary bone marrow cells. The data set can be described thus: Osteoclastogenesis in mouse primary bone marrow co-culture assay (TRAP staining). It is filed as cell-based. As to conditions: bone marrow cells co-cultured with TM40D-Mp vs TM40D cells; TRAP-positive cells with 2 or more nuclei. The source says:
FIG. 2. […] Osteoclastogenesis analyses of primary bone marrow cells co-cultured with breast cancer cells with or without maspin expression. (Panel A) Newly isolated primary bone marrow cells only (control). (Panel B) Bone marrow cells co-cultured with mammary tumor TM40D cells. (Panel C) Bone marrow cells co-cultured with maspin-expressing TM40D-Mp cells. (Panel D) Bone marrow cells co-cultured with TM40D-Mp cells and rabbit anti-maspin antibody. (Panel E) Bone marrow cells co-cultured with TM40D-Mp cells and rabbit IgG. (F) Summary of percentage of osteoclasts in co-cultured cells analyzed by TRAP staining. TRAP-positive cells containing 2 or more nuclei are defined as osteoclasts.

The test system of a further data set is RAW246.7 cells. The data set can be described thus: Differentiation assay of pre-osteoclastic RAW246.7 cells under RANKL (TRAP staining). It is filed as cell-based. The settings on record: maspin 0.1-10 ug/ml; RANKL 50-100 ng/ml; 8 days. The procedure:
FIG. 3. […] RAW246.7 cells were treated with RANKL (50 -100 ng/ml) and different doses of maspin for 8 days, and cell cultures were used for TRAP staining.

Data set [3] has as its system mature osteoclasts from RAW246.7. The data set can be described thus: Osteoclast actin ring formation (phalloidin staining). It is filed as cell-based. The settings on record: RANKL 50 ng/ml pre-culture 8 days; 2 hours at 37° C. As to the method: FIG. 6. Panels A-C: Maspin inhibits osteoclast actin ring formation. Osteoclasts display osteolytic activity by forming actin rings. RAW246.7 were pre-cultured with RANKL (50 ng/ml) for 8 days to form mature osteoclasts. Cells were first washed with cold PBS twice to disrupt actin rings, warm medium with RANKL were added to cell culture with or without Gst or GST-maspin and cells were then cultured for 2 hours at 37° C. Cells were then washed and stained with phalloidin for actin ring formation. Cells with strong and clear actin ring belts were counted as positive. Five fields of cell staining were counted for each sample and experiments repeated three times. The percentage of cells forming strong and clear actin rings was calculated.

The subject of another data set is calvariae. Put plainly: New bone formation in ex vivo calvariae organ culture model. The arrangement: species or system BABL/c new-born mice. The settings on record: 7 days organ culture. The text has this: FIG. 7. […] Panel A, calvariae were removed from 4 days-old BABL/c new-born mice and cultured in an ex vivo organ culture medium. They were either treated with or without concentrated conditional medium from mouse mammary tumor TM40D cells or maspin-expressing TM40D-Mp cells or with recombinant maspin (GST-Mp) with or without an anti-maspin antibody for 7 days. H&E staining of representative images were shown. Arrows indicate osteoblast cells. Arrowhead indicates new bone area. Panel B, quantitation of the average number of osteoblasts under different treatments listed in Panel A.

Data set [4] is described as follows: Long-term treatment with maspin in animals. It is filed as in vivo. The source says:
Because bone is tissue under constant balancing actions between bone-degrading osteoclasts and bone-forming osteoblasts, inhibiting the formation and activity of osteoclasts will favor or promote osteoblastic activity, thereby promoting new bone formation and bone wound healing. Further, maspin is naturally produced by osteoblasts in the bone microenvironment. This represents a previously unappreciated and unexploited mechanism for osteoblast-produced maspin counteracting the effect of osteclastic activity. […] Therefore, maspin may be delivered to human patients as a non-toxic therapeutic product against various bone diseases.

For data set [5] the following is noted: overexpression of maspin in vivo; cited from earlier work.

The source of these data is patent US20210113652A1, “MASPIN-BASED INHIBITION OF OSTEOCLAST ACTIVITY AND PROMOTION OF BONE FORMATION” (Northwestern University, priority 2016, published 2021).

B1: Maspin: Maspin (mammary serine protease inhibitor), a serpin protein encoded by the SERPINB5 gene; human wild-type is SEQ ID NO: 1 (protein, listed as Homo sapiens)
chain: MDALQLANSAFAVDLFKQLCEKEPLGNVLFSPICLSTSLSLAQVGAKGDTANEIGQVLHFENVKDIPFGFQTVTSDVNKLSSFYSLKLIKRLYVDKSLNLSTEFISSTKRPYAKELETVDFKDKLEETKGQINNSIKDLTDGHFENILADNSVNDQTKILVVNAAYFVGKWMKKFPESETKECPFRLNKTDTKPVQMMNMEATFCMGNIDSINCKIIELPFQNKHLSMFILLPKDVEDESTGLEKIEKQLNSESLSQWTNPSTMANAKVKLSIPKFKVEKMIDPKACLENLGLKHIFSEDTSDFSGMSETKGVALSNVIHKVCLEITEDGGDSIEVPGARILQHKDELNADHPFIYIIRHNKTRNIIFFGKFCSP
Take B1: in data set [1] (TM40D-Mp vs TM40D tumor cells), the “osteoclast numbers (TRAP staining) in mouse tibiae” value was “significantly decreased osteoclast numbers”. Moreover, the “osteolytic bone degradation (radiography)” value in data set [1] (tibiae inoculated with TM40D-Mp vs TM40D tumor cells, 2-week and 4-week time points) was “inhibits osteolytic bone degradation”. Besides, the osteoclast formation result in data set [2] is “inhibits osteoclast formation”. In addition, the “osteoclast formation under RANKL stimulation” value in the data set with RAW246.7 cells is on record as “completely inhibits osteoclast formation”. For the same molecule, the “percentage of cells forming strong and clear actin rings” value in data set [3] worked out at 53%. Further, in the data set with calvariae, the new bone formation result is reported as “promotes new bone formation”. The side effects result in data set [4] is “no side effects”. Besides, the toxic side effects result in data set [5] is reported as “does not have any observable toxic side effects”.
